# Laboratory results taken from the nanobody polyreactivity screen of Harvey et al. (2022).
# Test: yeast display, Sf9 membrane polyspecificity reagent, FACS + sequencing; frameworks hold sequencing errors
# Method in brief: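 A synthetic nanobody library was expressed on Saccharomyces cerevisiae BJ5465 by galactose induction for 36–48 hours. The library was stained for 1 hour at 4 °C with 10% biotinylated, detergent-solubilized Sf9 membrane reagent and enriched with streptavidin microbeads before FACS. Low and high (top ~1%) gates were set on anti-HA fluorescence for expression and streptavidin fluorescence for reagent binding, and each polyreactivity label reflects the gate of origin.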
row,Sequence,polyreactivity (PSR sort gate)
1,QVQLVESGGGLVQAGGSLRLICAASGLTFVYYTKRSYTQAPGKEREFVAGINSGGSTYYADSVKGRFTISRDNAKNTVYVQMNSLKPVDTAVYYCAAVERGYRRFRRIYDYWGQGTQVTVSS,high polyreactivity
2,QVQLVESGGGLVQAGGSLRLICAASGLTFWYYAMGWYRQAPGKERELVARITRSGVGTYYADSVKGRFTISRDNAKHTVYLQMNSLKPEDTAVYYCNARYQYSWVRYGYDYWGQGTQVTVSS,high polyreactivity
3,QVQLVESGGGLVQAGGSLRLICAASGLTYVSYAMGWYRQAPGKERELVAGITSGGGTTDYADSVKGRFTISRDNAKTTVYLQMNSLTPEDTAVYDCNARSVYDGFWYNYWGQGTQVTVSS,high polyreactivity
4,QVQLVESGGGLVQAGGSLRLICAASGMTFYSYAMGWYRQAPGKERELVAAISATGGRTYYADSEKGRFTISRDNAKNTVYLQMNSLKPEDTEVYYCAAKSSYEYGYWGQGTQVTVSS,high polyreactivity
5,QVQLVESGGGLVQAGGSLRLICAASGNTFGYNAMVWYRQAPGKERELVASITLSGGSTYYADSVKGRFTISRDTAKNTVYLQMFCLKPEDTAVYYCNADTFQWWDIADVYVIVKYGYWGQGTQVTVSS,low polyreactivity
6,QVQLVESGGGLVQAGGSLRLICAASGNTFKYNAMGWYRQAPGKERELVAAITWRGTSTSYADSVKGRFTISRDNAKNTVYLQMNSLKAEDTAFYYSNAVYYWYGRVAYSFGYWGQGTQVTVSS,high polyreactivity
7,QVQLVESGGGLVQAGGSLRLICAASGNTFSVYTMGWYRQAPGKERELVAAISFRSGSTYYADSVKGRFTISRDNAKNTVYLLMNSLKPEDTAVYYCAAYVRQLQVVRGVSNYDSWGQGTQVTVSS,high polyreactivity
8,QVQLVESGGGLVQAGGSLRLICAASGNTLGPYAMGWYRQAPGKERELVAAITWSGGITDYADSVKGRFTISRDNAKNTVYLQMNSLKPEDTAVYYCNAGPSLGIFQGTSVGLRYDYWGQGTQVTVSS,low polyreactivity
9,QVQLVESGGGLVQAGGSLRLICAASGRICISNAMGWYRQAPGKERELVAAITWIGDRTYYADSVKGRFTISRDNAKNTVYLQMISLKPEDTAVYYCAADSYSPYTMDYWRQGTQVTVSS,high polyreactivity
10,QVQLVESGGGLVQAGGSLRLICAASGRIFDFYAMGWYRQAPGKERELVAAITNGGRTNYADSVKGRFTISRDNAKNTVYLQMNSLKPEDTAVYYCAARLAYWYYYAWRGPYYYWGQGTQVTVSS,high polyreactivity
11,QVQLVESGGGLVQAGGSLRLICAASGRIFDSYTMGWYRQAPGKERELVAAISRGGGSTYYADSVKGRFTISRDNAKNTVYLQMNSLKPEDTAVFYCAASSYLNSRFKFDYWGQGTQVTVSS,low polyreactivity
12,QVQLVESGGGLVQAGGSLRLICAASGRIFGYYAMGWYRQAPGKERELVAAIDGSDGTTYYADSVKGRFTISRDNAKNTVYFHMNSLKPEDTAVYYCAKDNSLPDYDYWGQGTQVTVSS,low polyreactivity
13,QVQLVESGGGLVQAGGSLRLICAASGRIFLENALGWYRQAPGKERELVATISNGGSTSYADSVKGRFTISRDNAKNKVYLQMISLKPEDTSVYYCAADYCWPYILYGYDYWGEGTQVTVSS,low polyreactivity
14,QVQLVESGGGLVQAGGSLRLICAASGRIFLYYAMGWYRQAPGKERELVAAITRGGGTTYADSVKGRFTISRDNAKNTVYLQMNSLKPEDTAVYYCAKRYSYYPGFDYWGQGTQVTVSS,high polyreactivity
15,QVQLVESGGGLVQAGGSLRLICAASGRIFNRYAMGWYRQAPGNERELVAAITWSGDRTNYADSVKGRFTISRDNAKNTVYLLMNSLKPEDTAVYYCAAADGIIESDYWGQGTQVTVSS,low polyreactivity
16,QVQLVESGGGLVQAGGSLRLICAASGRIFNYNYMGLYRQAPGKERELLAAISWRGGSTYYADSVKGRFTISRDNAKNTVYLQMKSLKPEDTAVYYCNKRTRYSTGSRYDYWGQGTQVTVSS,high polyreactivity
17,QVQLVESGGGLVQAGGSLRLICAASGRIFRANARGWYRQAPGKERELVATIRNSGGITYYADSVKGRFTISRDHAKNTVYLQMNSLKPEDTALYYCGNLGRYCYDYWGQGTQVTVSS,high polyreactivity
18,QVQLVESGGGLVQAGGSLRLICAASGRIFRINAMGWYRQAPGKEREFVAAISWRSGSTYYADSVKGRFTISRDNAKNSVYLQMNSLKPEDTAVYYCAAKLYGYRSGYYYWGQGTQVTVSS,high polyreactivity
19,QVQLVESGGGLVQAGGSLRLICAASGRIFRPYAMGWYRQAPGKERELVAAISSSGGSTYYADSVKGRFTISRDNAKNTVYLQMNSLKPEDTAVYYCATYFARGRRYDYWGQGTQVTVSS,high polyreactivity
20,QVQLVESGGGLVQAGGSLRLICAASGRIFSSYAMGWYRQAPGKERELVAAISRGGGRTYYADSVKGRFTISRDNAKNTVYLQMNSLKPEDTAVYYCAVRLYYSIRYYYWGQGTQVTVSS,high polyreactivity
21,QVQLVESGGGLVQAGGSLRLICAASGRIFSYYAMGWYRQAPGKERELVARITSRGASTYYADSVKGRFTISRDNAKNTVYLQMNSLKPEDTAVYYCAARYIPIQYPSYRTWGGYSWGQGTQVTVSS,high polyreactivity
22,QVQLVESGGGLVQAGGSLRLICAASGRIFVYNAKGSYSQAPGKDRELVATITSGGSTYYSDSVKGRFTISRDNAKNTVYFQMNSLKPEDTAVYYCAARRWYVHYFAYGYWGQGTQVTVSS,low polyreactivity

row,Sequence,polyreactivity (PSR sort gate)
1,QVQLVESGGGLVQAGGSLRLICAASGRIFYGYAMGWYRPAPGKEREFVAAITVSAGSTYYADSVKGRFTISRDNAKNTVYLQMNSLKPEDTAVYYCAAKRYVYPSYRFDYWGQGTQVTVSS,low polyreactivity
2,QVQLVESGGGLVQAGGSLRLICAASGRIFYYYTMGWYRQAPGKERELVAAITRSGSSTYADSVKGRFTISRDNAKNTVYLQMNSLKPEDTAVYYCAADYIRRYDYWGQGTQVTVSS,low polyreactivity
3,QVQLVESGGGLVQAGGSLRLICAASGRIVEGYAMGWYRQAPGKERELDAAISSGGSTYYADSVKGRFTISRDNAKNTVYLQMNSLKPEDTAVYYCNAAHSVVSHGPGAGLEMDYWGEGTQVTVSS,low polyreactivity
4,QVQLVESGGGLVQAGGSLRLICAASGRNFTKYAMGLYRQAPGKERELVAAINFRGDRTYYADSVKGRYTISRDNAKNTVYLQMNSLKPEDTAVYYCAAEWSTYWLFNYEYWGQGTQVTVSS,high polyreactivity
5,QVQLVESGGGLVQAGGSLRLICAASGRSFNLYAMGWYRQAPGKERELVAAISYSGGRTYSADSVKGRFTISRDNAKNTVYLQMNSLKPEDTAVYYCNTVRGSVRQAGVGYEYWGQGTQVTVSS,high polyreactivity
6,QVQLVESGGGLVQAGGSLRLICAASGRTFCAYAMGWYRQAPGKERELVAAITTSGGSTNYADSVKGRFTISRDTAKYTVYLEMKSLKPEETAVYYCNADPTYHVVNGVGFWGQGTQVTVSS,low polyreactivity
7,QVQLVESGGGLVQAGGSLRLICAASGRTFFPYAMGWYRQAPGKEREFFAAISTRGGSTYYADSVKGRFTISRDNAKNTVYLQMNSLKPEDTAVYYCAARFHKKGYWVYRMDYWGQGTQVTVSS,high polyreactivity
8,QVQLVESGGGLVQAGGSLRLICAASGRTFGGNAMGWYRQAPGKERELVASITSRGGTTYYADSVKGRFTISRDNAKNTVYLQMNSLKPEDTAVYYCAALRRSSFGYWGQGTQVTVSS,high polyreactivity
9,QVQLVESGGGLVQAGGSLRLICAASGRTFGVYSMGWYRQAPGKERELVAAISATGGSTYYADSVKGRFTISRDNAKNTVYLQMNSLKPEDTAVYYCARGGTTLYWGQGTQVTVSS,high polyreactivity
10,QVQLVESGGGLVQAGGSLRLICAASGRTFQYNAMGWYRQAPGKERELVAAISARAGSTYYADSVKGRFTISRDNAKNTVYLQMNRLKPEDTAVYYCAARAWTRSVPYGFYYWGQGTQVTVSS,high polyreactivity
11,QVQLVESGGGLVQAGGSLRLICAASGRTFRIYAMGWYRQEPGKDRQLVAAIRWSGGTTYYADSVKGRFTISRDYAKNTVYLQMNSLKPDDTSVYYCAADSTNRFDYWGQGTQVTVSS,high polyreactivity
12,QVQLVESGGGLVQAGGSLRLICAASGRTFRYNAMGWYRQAPGKERELVAAITQSGGSTYYADSVKGRFTISRDNAKNTVYLQMNSLKPEDTAVYYCAKVRERINYDYWGQGTQVTVSS,low polyreactivity
13,QVQLVESGGGLVQAGGSLRLICAASGRTFSGYAMGWYRPAPGKERELVAAINWSTGSTYYADSVKGRFTISRDNAQNTVYLQMNSLKPEDTAVYYCAAGYYYYGNGRIVQYEYWGQGTQVTVSS,high polyreactivity
14,QVQLVESGGGLVQAGGSLRLICAASGRTFSSYSMGWYRQAPGKERELVAAISRSGARTYYADSVKGRFTISRDNAKNTFYVQMNSLKPEDTAVYSCAGVTVAGYDYWGQGTEVTVSS,high polyreactivity
15,QVQLVESGGGLVQAGGSLRLICAASGRTFVYYAMGWYRQAPGKERELLAANSLSGSTYYAYSVKGRVTISRDNAKNTVDLHMYSLKPDDTAVYYCARPGGPDRTSSPYPYPYGYWGQGTQVTVSS,low polyreactivity
16,QVQLVESGGGLVQAGGSLRLICAASGRTFVYYAMGWYRQAPGKERELVAAISSSGGSTSYADSVKGRFTISRDNAKNTVYLQMNSLKPEDTAFYYCAADVSVSGYYYWGQGTQVTVSS,high polyreactivity
17,QVQLVESGGGLVQAGGSLRLICAASGRTFYYNAMGWYRQAPGKERELVAAINRGTGGTFYADSVKGRFTISRDNAKNTVYLQMNSLKPEDTAVYYCAADLDGSSEYEYWGQGTQVTVSS,low polyreactivity
18,QVQLVESGGGLVQAGGSLRLICAASGRTFYYYAMGWYRQAPGKERELVAAISKDGGRTYYADSVKGRFTISRDNAKHTVYLQMKSLKPEDTAVYYCAARYSSSRGLSSEYWGQGTQVTVSS,high polyreactivity
19,QVQLVESGGGLVQAGGSLRLICAASGRYYAMGWYRQAPGKERELVAAISSGGSTNYADSVKGRFTISRDNAKNTVYLQMNSLKPEDTAVYYCAALIRQLRYYLYYYWGQGTQVTVSS,high polyreactivity
20,QVQLVESGGGLVQAGGSLRLICAASGSFFSKYAMGWYRQAPGTEREWVAAISWSGTSTYYADSVKGRFTISRDNAKITVYLQLNSLKTEDNAVSYCAASSPRSLSLLGYWGQGTQVTESS,low polyreactivity
21,QVQLVESGGGLVQAGGSLRLICAASGSIFADYVMGWYRQAPGKERELVAAITIDGGSTYYADSVKGRFTISRDNAKNTVYLQMNSLKPEDTAVYYCAADSSGRSDSWGQGTQVTVSS,low polyreactivity
